Results: paper PMC9691366, “Modulating the pharmacokinetic profile of Actinium-225-labeled macropa-derived radioconjugates by dual targeting of PSMA and albumin” (Theranostics, 2022)

Conditions: over 7 days
Procedure: The final conjugates mcp-M-alb-PSMA and mcp-D-alb-PSMA were successfully radiolabeled with ^225Ac at a concentration down to 10^-6 M with radiochemical conversions of higher than 99% within 15 min at room temperature and a resulting molar activity of 1 MBq/nmol. The radiolabeled actinium complexes [^225Ac]Ac-mcp-M-alb-PSMA and [^225Ac]Ac-mcp-D-alb-PSMA were characterized regarding decomplexation (by radio-TLC) and degradation (by radio-HPLC). […] Log D values for [^225Ac]Ac-mcp-M-alb-PSMA and [^225Ac]Ac-mcp-D-alb-PSMA were determined at pH 7.4 to be ‑2.4 and -1.7, respectively.
^225Ac was commercially supplied by ITM as [^225Ac]AcCl3. Radiolabeling was performed using 100 kBq ^225Ac, the respective ligand stem solution (10^-2 M - 10^-6 M) to reach the required ligand concentration (10^-3 M - 10^-7 M), the necessary amount of 2,5-dihydroxybenzoic acid (final concentration 0.1 M) and a volume of 0.2 M NH4OAc (pH 6) to adjust a total volume of 100 µL. […]
Once the labeling reaction was finished, samples were taken out and the ^225Ac-radioconjugates were analyzed via TLC (two systems: 1 - 0.05 M EDTA (pH 7) on silica plates; 2 - 70/30 acetonitrile/H2O on alugram RP-CN plates) and analytical HPLC on a Jasco HPLC system with GABI analyzer (Elysia Raytest) for gamma detection on a Phenomenex Phenyl-Hexyl column in water/acetonitrile (0.1% TFA each).

SMILES: O=C(O)CC[C@H](NC(=O)N[C@@H](CCCCNC(=O)[C@H](Cc1ccc2ccccc2c1)NC(=O)[C@H]1CC[C@H](CNC(=O)[C@H](CCCCn2cc(COc3cc(CN4CCOCCOCCN(Cc5cccc(C(=O)O)n5)CCOCCOCC4)nc(C(=O)O)c3)nn2)NC(=O)[C@H](CCC(=O)O)NC(=O)CCCc2ccc(I)cc2)CC1)C(=O)O)C(=O)O [[^225Ac]Ac-mcp-M-alb-PSMA, metal not drawn]
- ^225Ac release (decomplexation, radio-TLC): did not show any ^225Ac release

SMILES: O=C(O)CC[C@H](NC(=O)N[C@@H](CCCCNC(=O)[C@H](Cc1ccc2ccccc2c1)NC(=O)[C@H]1CC[C@H](CNC(=O)[C@H](CCCCn2cc(COc3cc(CN4CCOCCOCCN(Cc5cc(OCc6cn(CCCC[C@H](NC(=O)[C@H](CCC(=O)O)NC(=O)CCCc7ccc(I)cc7)C(=O)NC[C@H]7CC[C@H](C(=O)N[C@@H](Cc8ccc9ccccc9c8)C(=O)NCCCC[C@H](NC(=O)N[C@@H](CCC(=O)O)C(=O)O)C(=O)O)CC7)nn6)cc(C(=O)O)n5)CCOCCOCC4)nc(C(=O)O)c3)nn2)NC(=O)[C@H](CCC(=O)O)NC(=O)CCCc2ccc(I)cc2)CC1)C(=O)O)C(=O)O [[^225Ac]Ac-mcp-D-alb-PSMA, metal not drawn]
- ^225Ac release (decomplexation, radio-TLC): did not show any ^225Ac release
